Three molecules from US11225653B2, “Methods and compounds for reducing threonyl-tRNA synthetase activity” (University of Vermont and State Agricultural College, priority 2012, dated 2022) can be followed below.

Assay [1] has as its system chorioallantoic membrane (CAM). The assay can be described thus: Chick chorioallantoic membrane (CAM) assay. Type of assay: in vivo, chicken. Here is the method: Chick Chorioallantoic Membrane Assay-Fertilized chicken eggs (Sunrise Farms, Catskill, N.Y.) day 1-2 post-laying were incubated in a humidified incubator at 37° C. for 72 h. Cleaned eggs were cracked and plated in a sterile 10 cm^2 tissue culture-treated dish and incubated at 37° C. for another 7 days. On developmental day 10, 1 mm^3 sterile gelatin sponge pieces (Surgifoam®; Johnson & Johnson Wound Management, Somerville, N.J.) were placed within the outer one-third of the membrane between large vessels. 40 μg/ml human bFGF and 2 μg/mL human VEGF were used as pro-angiogenic control compounds; 100 μg/mL retinoic acid (Sigma-Aldrich, St. Louis, Mo.) diluted in phosphate-buffered saline (PBS) was used as an angiostatic control. All compounds were applied in 10 μl to the CAM every 24 h for 72 h. Images were taken using a Leica MZ6 stereomicroscope every 24 h. Compounds were scored according to a modified version of Intensity Scoring as previously described (Ribatti, Nico et al. 2006). Briefly, each experimental condition was given a blinded score from 0-5 based on the change in the extent of vessel convergence and formation in proximity to the sponge from day 0 to day 3. Total score is averaged individual experimental condition scores from at least 15 replicates.
Fertilized chicken embryos were cultured ex-ova and, starting at developmental day 10, agents were applied daily to gelfoam sponges on the CAM. Images were recorded daily over 72 h and scored blindly according to a modified version Intensity Scoring as previously described (Ribatti, Nico et al. 2006). Additional details regarding methods are provided in the Methods and Materials section of Example 1.

In assay [2] the target is T1, human TARS (Homo sapiens, UniProt P26639).
T1 construct: His6 (N); made in house; host or cells: E. coli Rosetta 2(DE3)pLysS, plasmid pET28a hctThrRS
T1 sequence (P26639 1-723): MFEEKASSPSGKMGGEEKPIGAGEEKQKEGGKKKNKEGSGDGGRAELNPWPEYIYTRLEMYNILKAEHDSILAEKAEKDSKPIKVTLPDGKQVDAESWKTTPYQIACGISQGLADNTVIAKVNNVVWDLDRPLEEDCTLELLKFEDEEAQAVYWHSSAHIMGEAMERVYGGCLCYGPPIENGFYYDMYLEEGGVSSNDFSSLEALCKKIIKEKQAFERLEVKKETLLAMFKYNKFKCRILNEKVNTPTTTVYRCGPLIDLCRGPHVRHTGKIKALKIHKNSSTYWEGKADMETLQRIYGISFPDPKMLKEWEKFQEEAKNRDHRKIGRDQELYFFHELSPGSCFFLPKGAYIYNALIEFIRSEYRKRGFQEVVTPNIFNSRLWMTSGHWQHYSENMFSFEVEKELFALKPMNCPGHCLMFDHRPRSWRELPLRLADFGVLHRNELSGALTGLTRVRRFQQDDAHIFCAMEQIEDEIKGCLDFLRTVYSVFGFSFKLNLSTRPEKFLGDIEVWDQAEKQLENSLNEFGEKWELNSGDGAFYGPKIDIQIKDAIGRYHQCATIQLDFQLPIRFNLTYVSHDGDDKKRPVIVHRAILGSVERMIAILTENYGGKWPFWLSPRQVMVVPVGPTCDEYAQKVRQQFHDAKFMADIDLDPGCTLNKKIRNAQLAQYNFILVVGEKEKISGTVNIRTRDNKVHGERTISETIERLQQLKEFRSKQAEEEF
The assay can be described thus: Ap4A formation assay. Type of assay: biochemical. As to conditions: FIGS. 17C and 17D, 10 μM compound. Here is the method: (§1) TARS purification and active site determination were performed as previously described (Williams, Mirando et al., 2013). TARS non-canonical catalytic activities were characterized using modifications from published methods (Guo, Chong et al. 2009). For Ap4A reactions 5 μM of wildtype TARS or R442A TARS were incubated for 10 minutes on ice with 2 mM threonine, and 10 μM BC194 or borrelidin as indicated in FIG. 17C. Reactions were initiated using 2 mM ATP with trace amounts of [α-^32P]-ATP as label. At specific time points aliquots were quenched in 3 volumes of 0.1% SDS, 400 mM sodium acetate and resolved on polyethyleneimine-cellulose plates by thin-layer chromatography (TLC) in 3 M NH4 (SO4)2 and 2% EDTA. Radioactive counts were identified by phosphorimaging and products quantified as fractions of total ATP added. The quantitation of product was normalized to take into account the fact that each Ap4A molecule has two equivalents of radioactive phosphorus.

A further assay deals with HUVEC. The assay can be described thus: Transwell migration assay. Type of assay: cell-based, human. Conditions: 4 h. Here is the method: Transwell Migration Assay—Migration was assessed using transwell inserts (Svensson, Kucharzewska et al. 2011). HUVEC cultures were serum-depleted overnight in Clonetics® EGM®-2 modified with 0.2% fetal bovine serum then 5×10^4 cells were plated in 90% EBM®-2, 10% EGM®-2 in the upper chamber of 0.2% gelatin-coated 24-well 8 μm Transwell® inserts (Corning, Tewksbury, Mass.) with 90% EBM®-2, 10% EGM®-2 media plus 50 ng/ml VEGF, 1-100 nM TARS protein, or 10 nM BC194 in the lower chamber. Cultures were incubated for 4 h, fixed in 10% formalin, and stained with 10 μg/ml DAPI solution (Roche) following removal of cells from the top layer of the chamber with a cotton swab. Migrated cells were imaged using a 4× objective on the Olympus 1×70 Inverted microscope (Olympus). DAPI-stained nuclei were counted using ImageJ software.

Another assay has as its system HUVECs. The assay can be described thus: Endothelial cell proliferation assay (alamarBlue). Type of assay: cell-based, human. Here is the method:
Endothelial Cell Proliferation Assay—The […] alamarBlue® (Invitrogen) reagent was used to assess cell proliferation (Ahmed, Gogal et al. 1994). HUVECs were seeded in a 96-well dish (1×10^3 cells/well) and grown for 48 h in EGM®-2 media. Cells were incubated in 0.2% FBS EGM®-2 media or EGM®-2 complete media as indicated; VEGF (50 ng/ml) and media alone served as controls. After 48 h, 72 h, or 96 h in culture, 10 μl/well premixed alamarBlue® (Invitrogen) was added and after 3 h at 37° C. the amount of reduced alamarBlue® was quantified by fluorescence (excitation at 530 nm, emission at 590 nm) on a microplate reader (Synergy™ HT, BioTek, Winooski, Vt.).

In assay [3] the test system is Human umbilical vein endothelial cells (HUVECs). The assay can be described thus: In vitro endothelial tube formation assay. Type of assay: cell-based. Here is the method:
In vitro Tube Formation Assay-Tube formation assays were performed as described (Arnaoutova and Kleinman 2010; Cassavaugh, Hale et al. 2011). Human Umbilical Vein Endothelial Cells (HUVECs) were seeded in 48-well plates (1.5×10^4 cells/well) coated with 100 μl of Matrigel™ Basement Membrane Matrix Growth Factor Reduced (BD Biosciences, San Jose, Calif.) and incubated in Clonetics® EGM®-2 complete media (Lonza, Annandale, N.J.) or EGM®-2 with reduced serum (0.2% fetal bovine serum). Cells were incubated at 37° C. for 6 h then fixed in 10% formalin. Fixed samples were imaged by phase-contrast microscopy or stained with Oregon Green 488 Phalloidin (Molecular Probes, Eugene, Oreg.) then imaged with fluorescence microscopy (2× objective). Number of tubes and tube lengths (in pixels) were quantified using the Simple Neurite Tracer (Longair, Baker et al. 2011) plug-in on ImageJ software (NIH). Statistical analysis of one-way ANOVA was performed with GraphPad Software. Multiple comparisons were performed using the Tukey Test.

The target in assay [4] is T1, human TARS. The assay can be described thus: GTPase assay (GTP hydrolysis). Type of assay: biochemical. Conditions: 10 μM BC194 or 10 μM borrelidin.
The test system of assay [5] is human TARS. The assay can be described thus: Ap4A formation assay. Type of assay: biochemical. As to conditions: 5 μM enzyme, 2 mM threonine, 2 mM ATP. Here is the method:
as §1

The subject of assay [6] is human TARS. The assay can be described thus: Ap4G formation assay. As to conditions: 2 mM ATP, 2 mM threonine, 2 mM GTP. Type of assay: biochemical.
Assay [7] relates to human TARS. The assay can be described thus: Steady state aminoacylation assay. Type of assay: biochemical. As to conditions: purified protein. Here is the method: Steady State Aminoacylation Assay-The aminoacylation activities of the TARS constructs were determined using modifications to established procedures ([…] et al 2008). Briefly, reaction mixtures consisted of 20 mM Tris-HCl pH 8.0, 100 mM KCl, 10 mM MgCl2, 1 mM dithiothreitol, 2 mM ATP, 2.5 U pyrophosphatase (Roche), 80 μM threonine, 20 μM [14C]-threonine, and 5 μM of E. coli or human […]. Reactions were initiated with the addition of 0.25-0.75 μM TARS and run at 37° C. Aliquots were taken at varying time points and spotted onto Whatmann 3MM paper filters pre-soaked in 5% trichloroacetic acid (TCA). Upon completion, the filters were washed 3 times in excess TCA, once in 95% ethanol, and dried under a heating lamp. The formation of […] was detected by scintillation counter and the activity determined by linear regression of […] formed per active site per unit time.

The subject of assay [8] is human TARS. The assay can be described thus: GTPase assay (GTP hydrolysis). Type of assay: biochemical. As to conditions: 2 mM GTP.

“Also recorded” adds a separate entry of the source.

For `C[C@@H]1C[C@H](C)C[C@H](C)[C@@H](O)CC(=O)O[C@H]([C@@H]2CC[C@H]2C(=O)O)C/C=C/C=C(/C#N)[C@H](O)[C@@H](C)C1` [BC194, reference compound], the “inhibition of vessel formation on the CAM” value in [1] (daily application to gel sponge, basal, bFGF (40 μg/ml) or VEGF (2 μg/ml) stimulated) was “inhibited vessel formation at both the basal level and after stimulation with either bFGF or VEGF”. In addition, the “inhibition of Ap4A and Ap4G synthesis (in words)” value at human TARS [2] is “at least partially inhibited”. The “effect on VEGF- and TARS-mediated migration” value with HUVEC (10 nM BC194 with 50 ng/ml VEGF or 100 nM TARS) was “reduced both the migration effects of VEGF and TARS”. In addition, the “effect on VEGF proliferative response” value with HUVECs (10 nM BC194, 50 ng/ml VEGF, low serum media) is listed as “did not significantly reduce the VEGF proliferative response”. For the same molecule, in [3] (HUVECs on Matrigel, range of BC194 concentrations), the “tube (branch) length” value is listed as “does not affect endothelial tube branch length”. Besides, the “change of TARS GTPase activity upon treatment” value at human TARS [4] is reported as “no observable change”.
Consider `C[C@@H]1C[C@H](C)C[C@H](C)[C@@H](O)CC(=O)O[C@H]([C@@H]2CCC[C@H]2C(=O)O)C/C=C/C=C(/C#N)[C@H](O)[C@@H](C)C1` [borrelidin, reference compound], for which the “inhibition of Ap4A and Ap4G synthesis (in words)” value at human TARS [2] is recorded as “at least partially inhibited”. For the same molecule, at human TARS [4], the “change of TARS GTPase activity upon treatment” value was “no observable change”.

B1: TARS: N-terminal His6-tagged human threonyl-tRNA synthetase expressed and purified from E. coli (protein, UniProt P26639 1-723, looked up)
Threonine--tRNA ligase 1, …: T1 sequence (P26639 1-723)
modifications: N-terminal His6 tag
notes: N-terminal His6-tagged human threonyl-tRNA synthetase expressed and purified from E. coli
In the case of B1, in [1] (protein applied together with BC194), the “sensitivity of protein-stimulated CAM vessel formation to BC194” value was “sensitive to BC194”. For the same molecule, the “vessel formation / vascularization on the CAM after applied protein” value in [1] (purified protein applied daily to sponge, scored over 72 h) is listed as “stimulated vessel formation; also recorded: induces in vivo angiogenesis”. Moreover, in the assay with human TARS [5], the “production of Ap4A” value is 0.1391 Ap4A/active site/min. In addition, the “migration of endothelial cells” value with HUVEC (100 nM TARS or 100 nM LARS in migration compartment) is listed as “significantly increased migration of endothelial cells; also recorded: selectively induces migration of endothelial cells”. Further, the “rate of Ap4G formation” value in the assay on human TARS [6] stood at 0.1639 Ap4G/active site/min. Further, in the assay with human TARS [7], the “aminoacylation activity of the protein” value is “exhibits aminoacyl synthetase activity”. For the same molecule, in the assay with HUVECs (HUVECs in low serum (0.2% FBS) media), the “cell proliferation with TARS” value is listed as “did not exert a significant effect on cell proliferation; also recorded: does not significantly affect cell proliferation”. Moreover, the “number of tube branches after exogenous protein” value in assay [3] (100 nM purified recombinant human TARS in low serum media (0.2% FBS), 6 h) was “significantly increased the number of tube branches; also recorded: promotes angiogenesis”. In the assay on human TARS [8], this molecule displayed a GTP hydrolysis of 0.3033 GDP/active site/min.
